We go through one molecule from patent CN115141281A (dated 2022).

The target of the assay is T1, 人环氧合酶-2(COX-2) (human, UniProt P35354 18-604, limits assumed).
T1 construct: also called 人COX-2; 重组人COX2
T1 sequence (looked up): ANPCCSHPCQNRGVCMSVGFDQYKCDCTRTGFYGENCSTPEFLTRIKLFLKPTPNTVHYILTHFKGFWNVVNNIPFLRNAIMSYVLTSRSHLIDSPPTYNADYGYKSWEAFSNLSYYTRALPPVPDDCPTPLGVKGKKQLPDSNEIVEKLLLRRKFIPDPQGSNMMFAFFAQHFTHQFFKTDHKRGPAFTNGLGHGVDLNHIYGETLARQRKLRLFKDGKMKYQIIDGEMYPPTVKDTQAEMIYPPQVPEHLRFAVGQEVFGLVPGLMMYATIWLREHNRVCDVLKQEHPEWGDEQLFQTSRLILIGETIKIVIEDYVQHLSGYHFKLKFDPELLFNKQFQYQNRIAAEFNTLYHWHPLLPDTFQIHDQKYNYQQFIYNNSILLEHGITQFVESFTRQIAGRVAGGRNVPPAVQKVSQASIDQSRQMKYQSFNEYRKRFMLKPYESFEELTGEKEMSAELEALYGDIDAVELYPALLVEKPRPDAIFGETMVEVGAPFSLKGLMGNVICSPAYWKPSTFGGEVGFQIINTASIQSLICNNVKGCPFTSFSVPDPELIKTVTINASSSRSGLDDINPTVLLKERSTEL
As to the kind of experiment: BLI, antibody (25 nM) loaded on AHC sensor, two-fold dilutions of human COX-2 in solution.

B1: COX-2-HM4E6单克隆抗体 (antibody, V domains shown)
VH: EVQLEESATELARPGASVKLSCKASGYIFSVLMILWIKQRPGQGLEWIGLCKMLIPNFNMRHALFGKATLTADKSSSTAYMQLSSLASEDSAVYYCAGFIDNIWYWGLGTTLAVSS
VL: DIVITQRPALMAASPGEKVTITCQDSGNVYRNEKPWYQQKSGISPKPWIYYATHFTKGVPARFSGSGSGTSYSLTITSMEAEDAATYYCTFGCKHFDHFGAGTKLELK
The Kd is a measure of binding affinity in units of concentration. Read a high Kd as lower affinity. Regarding B1, binding was put at a Kd of 696 pM.
